The source of these data is US20170306033A1 (Amgen, published 2017).

A value given as a limit tells only on which side of the number the result lay.

For one experiment, the target named is T1, human PAC1 receptor (human, UniProt P41586 21-468).
T1 sequence: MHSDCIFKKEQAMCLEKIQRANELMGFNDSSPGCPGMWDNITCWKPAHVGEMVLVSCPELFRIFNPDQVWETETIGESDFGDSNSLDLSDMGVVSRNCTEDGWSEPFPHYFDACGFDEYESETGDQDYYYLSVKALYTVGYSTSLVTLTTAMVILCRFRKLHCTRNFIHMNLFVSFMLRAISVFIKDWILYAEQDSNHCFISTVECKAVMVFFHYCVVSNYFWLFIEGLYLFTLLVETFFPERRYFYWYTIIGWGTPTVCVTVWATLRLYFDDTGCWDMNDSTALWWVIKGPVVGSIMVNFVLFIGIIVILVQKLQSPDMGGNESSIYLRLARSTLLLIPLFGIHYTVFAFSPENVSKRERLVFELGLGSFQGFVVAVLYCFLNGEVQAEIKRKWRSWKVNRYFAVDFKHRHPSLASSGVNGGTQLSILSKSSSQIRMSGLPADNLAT
Nature of the experiment: cell-based or functional assay.

The target in a further experiment is human CGRP receptor (human, UniProt Q16602 23-461; O60894 27-148). Nature of the experiment: cell-based or functional assay.
Sequence of human CGRP receptor (Q16602 23-461 limits assumed, chain 1 of 2): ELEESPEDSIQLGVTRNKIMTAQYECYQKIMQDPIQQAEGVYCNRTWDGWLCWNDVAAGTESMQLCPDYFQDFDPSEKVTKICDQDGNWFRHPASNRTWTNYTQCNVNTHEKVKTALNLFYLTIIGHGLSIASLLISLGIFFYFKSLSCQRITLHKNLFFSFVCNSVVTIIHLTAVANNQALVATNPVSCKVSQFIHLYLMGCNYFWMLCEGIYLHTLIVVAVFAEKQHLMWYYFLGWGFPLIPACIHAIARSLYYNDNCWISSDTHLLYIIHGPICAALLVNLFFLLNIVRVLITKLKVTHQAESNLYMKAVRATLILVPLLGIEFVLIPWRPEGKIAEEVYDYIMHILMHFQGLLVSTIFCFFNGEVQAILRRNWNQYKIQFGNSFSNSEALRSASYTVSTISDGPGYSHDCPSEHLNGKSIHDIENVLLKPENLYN
Sequence of human CGRP receptor (O60894 27-148 limits assumed, chain 2 of 2): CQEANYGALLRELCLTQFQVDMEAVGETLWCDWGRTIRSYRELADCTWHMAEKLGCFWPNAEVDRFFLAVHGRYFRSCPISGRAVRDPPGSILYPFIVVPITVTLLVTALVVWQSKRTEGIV

B1: iPS:392524 (bispecific antibody, human IgG1, kappa, lambda, N297G)
light: QSVLTQPPSVSAAPGQKVTISCSGSSSNIGNNYVSWYQQLPGTAPKLLIYDNNKRPSGIPDRFSGSKSGTSTTLGITGLQTGDEADYYCGTWDSRLSAVVFGGGTKLTVLGQPKANPTVTLFPPSSEELQANKATLVCLISDFYPGAVTVAWKADGSPVKAGVETTKPSKQSNNKYAAKSYLSLTPEQWKSHRSYSCQVTHEGSTVEKTVAPTECS
heavy: not shown
chain: QVQLVESGAEVVKPGASVKVSCKASGFTFSRFAMHWVRQAPGQGLEWMGVISYDGGNKYYAESVKGRVTMTRDTSTSTLYMELSSLRSEDTAVYYCARGYDVLTGYPDYWGQGTLVTVSSTVAAPSVFIFPPSDEQLKSGTASVVCLLNNFYPREAKVQWKVDNALQSGNSQESVTEQDSKDSTYSLKSTLTLSKADYEKHKVYACEVTHQGLSSPVTKSFNRGEC
With B1, the “Human PAC1 Receptor IC50” value with human PAC1 receptor is 81.2 nM. Besides, the “Human CGRP Receptor IC50” value with human CGRP receptor stood at 0.86 nM.

B2: iPS:392525 (bispecific antibody, human IgG1, kappa, lambda, N297G)
light: QSVLTQPPSVSAAPGQKVTISCSGSSSNIGNNYVSWYQQLPGTAPKLLIYDNNKRPSGIPDRFSGSKSGTSTTLGITGLQTGDEADYYCGTWDSRLSAVVFGGGTKLTVLGQPKANPTVTLFPPSSEELQANKATLVCLISDFYPGAVTVAWKADGSPVKAGVETTKPSKQSNNKYAAKSYLSLTPEQWKSHRSYSCQVTHEGSTVEKTVAPTECS
heavy: not shown
chain: QVQLVESGAEVVKPGASVKVSCKASGFTFSRFAMHWVRKAPGQGLEWMGVISYDGGNKYYAESVKGRVTMTRDTSTSTLYMELSSLRSEDTAVYYCARGYDVLTGYPDYWGQGTLVTVSSTVAAPSVFIFPPSDEQLKSGTASVVCLLNNFYPREAKVQWKVDNALQSGNSQESVTEQDSKDSTYSLKSTLTLSKADYEKHKVYACEVTHQGLSSPVTKSFNRGEC
Consider B2, for which the “Human PAC1 Receptor IC50” value with human PAC1 receptor worked out at 37.1 nM. For the same molecule, the “Human CGRP Receptor IC50” value with human CGRP receptor turned out to be 1.22 nM.

B3: iPS:392528 (bispecific antibody, human IgG1, kappa, lambda, N297G)
light: QSVLTQPPSVSAAPGQKVTISCSGSSSNIGNNYVSWYQQLPGTAPKLLIYDNNKRPSGIPDRFSGSKSGTSTTLGITGLQTGDEADYYCGTWDSRLSAVVFGGGTKLTVLGQPKANPTVTLFPPSSEELQANKATLVCLISDFYPGAVTVAWKADGSPVKAGVETTKPSKQSNNKYAAKSYLSLTPEQWKSHRSYSCQVTHEGSTVEKTVAPTECS
heavy: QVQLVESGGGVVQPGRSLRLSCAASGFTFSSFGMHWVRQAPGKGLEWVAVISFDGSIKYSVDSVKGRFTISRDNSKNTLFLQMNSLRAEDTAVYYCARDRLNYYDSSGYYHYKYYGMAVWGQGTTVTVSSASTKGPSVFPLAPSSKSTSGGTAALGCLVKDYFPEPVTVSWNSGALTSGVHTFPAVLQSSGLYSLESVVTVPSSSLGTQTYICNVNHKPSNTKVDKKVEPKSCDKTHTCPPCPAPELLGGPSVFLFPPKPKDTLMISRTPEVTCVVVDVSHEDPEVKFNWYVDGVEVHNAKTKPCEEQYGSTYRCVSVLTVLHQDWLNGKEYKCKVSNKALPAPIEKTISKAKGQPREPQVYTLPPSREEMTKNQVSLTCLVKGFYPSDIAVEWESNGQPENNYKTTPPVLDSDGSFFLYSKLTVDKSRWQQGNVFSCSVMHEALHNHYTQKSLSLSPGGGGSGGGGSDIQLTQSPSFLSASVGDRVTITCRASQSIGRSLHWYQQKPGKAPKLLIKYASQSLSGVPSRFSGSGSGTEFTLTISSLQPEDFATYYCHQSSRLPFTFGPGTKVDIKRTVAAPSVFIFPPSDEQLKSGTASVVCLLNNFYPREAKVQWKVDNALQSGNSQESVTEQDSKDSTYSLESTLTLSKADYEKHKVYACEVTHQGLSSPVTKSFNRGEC
chain: QVQLVESGAEVVKPGASVKVSCKASGFTFSRFAMHWVRQAPGQGLEWMGVISYDGGNKYYAESVKGRVTMTRDTSTSTLYMELSSLRSEDTAVYYCARGYDVLTGYPDYWGQGTLVTVSSASTKGPSVFPLAPSSKSTSGGTAALGCLVKDYFPEPVTVSWNSGALTSGVHTFPAVLQSSGLYSLKSVVTVPSSSLGTQTYICNVNHKPSNTKVDKKV
In the case of B3, the “Human PAC1 Receptor IC50” value in the experiment with human PAC1 receptor was above 1000 nM. Moreover, in the experiment with human CGRP receptor, the “Human CGRP Receptor IC50” value turned out to be 0.55 nM.

B4: iPS:392530 (bispecific antibody, human IgG1, kappa, lambda, N297G)
light: QSVLTQPPSVSAAPGQKVTISCSGSSSNIGNNYVSWYQKLPGTAPKLLIYDNNKRPSGIPDRFSGSKSGTSTTLGITGLQTGDEADYYCGTWDSRLSAVVFGGGTKLTVLGQPKANPTVTLFPPSSEELQANKATLVCLISDFYPGAVTVAWKADGSPVKAGVETTKPSKQSNNKYAAKSYLSLTPEQWKSHRSYSCQVTHEGSTVEKTVAPTECS
heavy: not shown
chain: QVQLVESGAEVVKPGASVKVSCKASGFTFSRFAMHWVRQAPGQGLEWMGVISYDGGNKYYAESVKGRVTMTRDTSTSTLYMELSSLRSEDTAVYYCARGYDVLTGYPDYWGQGTLVTVSSASTKGPSVFPLAPSSKSTSGGTAALGCLVKDYFPEPVTVSWNSGALTSGVHTFPAVLQSSGLYSLKSVVTVPSSSLGTQTYICNVNHKPSNTKVDKKV
Consider B4, for which the “Human PAC1 Receptor IC50” value with human PAC1 receptor was above 1000 nM. In addition, in the experiment with human CGRP receptor, the “Human CGRP Receptor IC50” value came to 0.38 nM.

B5: iPS:392529 (bispecific antibody, human IgG1, kappa, lambda, N297G)
light: QSVLTQPPSVSAAPGQKVTISCSGSSSNIGNNYVSWYQQLPGTAPKLLIYDNNKRPSGIPDRFSGSKSGTSTTLGITGLQTGDEADYYCGTWDSRLSAVVFGGGTKLTVLGQPKANPTVTLFPPSSEELQANKATLVCLISDFYPGAVTVAWKADGSPVKAGVETTKPSKQSNNKYAAKSYLSLTPEQWKSHRSYSCQVTHEGSTVEKTVAPTECS
heavy: not shown
chain: QVQLVESGAEVVKPGASVKVSCKASGFTFSRFAMHWVRKAPGQGLEWMGVISYDGGNKYYAESVKGRVTMTRDTSTSTLYMELSSLRSEDTAVYYCARGYDVLTGYPDYWGQGTLVTVSSASTKGPSVFPLAPSSKSTSGGTAALGCLVKDYFPEPVTVSWNSGALTSGVHTFPAVLQSSGLYSLKSVVTVPSSSLGTQTYICNVNHKPSNTKVDKKV
In the case of B5, the “Human PAC1 Receptor IC50” value with human PAC1 receptor was above 1000 nM. Besides, the “Human CGRP Receptor IC50” value in the experiment with human CGRP receptor stood at 0.56 nM.

B6: iPS:392527 (bispecific antibody, human IgG1, kappa, lambda, N297G)
light: QSVLTQPPSVSAAPGQKVTISCSGSSSNIGNNYVSWYQQLPGTAPKLLIYDNNKRPSGIPDRFSGSKSGTSTTLGITGLQTGDEADYYCGTWDSRLSAVVFGGGTKLTVLGQPKANPTVTLFPPSSEELQANKATLVCLISDFYPGAVTVAWKADGSPVKAGVETTKPSKQSNNKYAAKSYLSLTPEQWKSHRSYSCQVTHEGSTVEKTVAPTECS
heavy: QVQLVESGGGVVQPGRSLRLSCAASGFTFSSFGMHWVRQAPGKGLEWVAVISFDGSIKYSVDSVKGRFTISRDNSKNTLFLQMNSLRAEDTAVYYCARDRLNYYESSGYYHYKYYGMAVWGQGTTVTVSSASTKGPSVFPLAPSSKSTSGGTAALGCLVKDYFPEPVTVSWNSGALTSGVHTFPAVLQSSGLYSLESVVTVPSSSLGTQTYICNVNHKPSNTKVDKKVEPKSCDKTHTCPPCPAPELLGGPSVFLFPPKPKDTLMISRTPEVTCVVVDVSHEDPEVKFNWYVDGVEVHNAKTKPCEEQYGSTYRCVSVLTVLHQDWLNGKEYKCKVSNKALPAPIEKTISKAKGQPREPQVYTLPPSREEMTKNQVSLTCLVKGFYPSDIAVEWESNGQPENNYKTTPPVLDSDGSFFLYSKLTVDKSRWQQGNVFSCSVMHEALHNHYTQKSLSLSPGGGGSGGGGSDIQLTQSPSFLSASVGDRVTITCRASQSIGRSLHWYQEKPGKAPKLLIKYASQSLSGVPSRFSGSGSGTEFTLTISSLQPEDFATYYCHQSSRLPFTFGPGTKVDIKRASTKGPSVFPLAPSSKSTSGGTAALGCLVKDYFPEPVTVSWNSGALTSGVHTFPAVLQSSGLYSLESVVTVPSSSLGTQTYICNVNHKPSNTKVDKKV
chain: QVQLVESGAEVVKPGASVKVSCKASGFTFSRFAMHWVRKAPGQGLEWMGVISYDGGNKYYAESVKGRVTMTRDTSTSTLYMELSSLRSEDTAVYYCARGYDVLTGYPDYWGQGTLVTVSSTVAAPSVFIFPPSDEQLKSGTASVVCLLNNFYPREAKVQWKVDNALQSGNSQESVTEQDSKDSTYSLKSTLTLSKADYEKHKVYACEVTHQGLSSPVTKSFNRGEC
Take B6: in the experiment with human PAC1 receptor, the “Human PAC1 Receptor IC50” value is 16.4 nM. Besides, the “Human CGRP Receptor IC50” value with human CGRP receptor is 0.42 nM.

B7: iPS:392526 (bispecific antibody, human IgG1, kappa, lambda, N297G)
light: QSVLTQPPSVSAAPGQKVTISCSGSSSNIGNNYVSWYQQLPGTAPKLLIYDNNKRPSGIPDRFSGSKSGTSTTLGITGLQTGDEADYYCGTWDSRLSAVVFGGGTKLTVLGQPKANPTVTLFPPSSEELQANKATLVCLISDFYPGAVTVAWKADGSPVKAGVETTKPSKQSNNKYAAKSYLSLTPEQWKSHRSYSCQVTHEGSTVEKTVAPTECS
heavy: not shown
chain: QVQLVESGAEVVKPGASVKVSCKASGFTFSRFAMHWVRQAPGQGLEWMGVISYDGGNKYYAESVKGRVTMTRDTSTSTLYMELSSLRSEDTAVYYCARGYDVLTGYPDYWGQGTLVTVSSTVAAPSVFIFPPSDEQLKSGTASVVCLLNNFYPREAKVQWKVDNALQSGNSQESVTEQDSKDSTYSLKSTLTLSKADYEKHKVYACEVTHQGLSSPVTKSFNRGEC
As to B7, the “Human PAC1 Receptor IC50” value with human PAC1 receptor is 116 nM. The “Human CGRP Receptor IC50” value with human CGRP receptor was found to be 0.71 nM.

B8: iPS:392520 (bispecific antibody, human IgG1, kappa, lambda, N297G)
light: DIQLTQSPSFLSASVGDRVTITCRASQSIGRSLHWYQQKPGKAPKLLIKYASQSLSGVPSRFSGSGSGTEFTLTISSLQPEDFATYYCHQSSRLPFTFGPGTKVDIKRTVAAPSVFIFPPSDEQLKSGTASVVCLLNNFYPREAKVQWKVDNALQSGNSQESVTEQDSKDSTYSLESTLTLSKADYEKHKVYACEVTHQGLSSPVTKSFNRGEC
heavy: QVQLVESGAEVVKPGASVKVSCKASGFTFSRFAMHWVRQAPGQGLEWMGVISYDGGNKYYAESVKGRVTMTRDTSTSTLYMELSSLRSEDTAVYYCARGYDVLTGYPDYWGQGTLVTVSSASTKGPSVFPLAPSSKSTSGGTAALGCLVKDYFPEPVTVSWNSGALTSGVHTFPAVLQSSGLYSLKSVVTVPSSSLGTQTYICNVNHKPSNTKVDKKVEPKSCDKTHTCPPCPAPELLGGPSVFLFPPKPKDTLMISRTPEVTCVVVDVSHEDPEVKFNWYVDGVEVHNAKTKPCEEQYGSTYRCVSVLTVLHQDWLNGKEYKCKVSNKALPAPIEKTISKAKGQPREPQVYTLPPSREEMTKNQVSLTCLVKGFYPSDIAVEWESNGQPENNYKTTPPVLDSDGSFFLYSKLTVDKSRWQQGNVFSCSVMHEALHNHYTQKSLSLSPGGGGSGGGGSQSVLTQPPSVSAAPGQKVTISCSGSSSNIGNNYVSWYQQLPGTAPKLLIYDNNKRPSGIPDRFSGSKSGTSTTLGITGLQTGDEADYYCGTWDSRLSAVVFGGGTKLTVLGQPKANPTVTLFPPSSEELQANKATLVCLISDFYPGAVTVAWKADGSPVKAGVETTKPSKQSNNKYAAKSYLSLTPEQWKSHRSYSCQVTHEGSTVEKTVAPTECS
chain: QVQLVESGGGVVQPGRSLRLSCAASGFTFSSFGMHWVRQAPGKGLEWVAVISFDGSIKYSVDSVKGRFTISRDNSKNTLFLQMNSLRAEDTAVYYCARDRLNYYESSGYYHYKYYGMAVWGQGTTVTVSSASTKGPSVFPLAPSSKSTSGGTAALGCLVKDYFPEPVTVSWNSGALTSGVHTFPAVLQSSGLYSLESVVTVPSSSLGTQTYICNVNHKPSNTKVDKKV
B8: in the experiment with human PAC1 receptor, the “Human PAC1 Receptor IC50” value was 6.28 nM. In the experiment with human CGRP receptor, the “Human CGRP Receptor IC50” value came to 10.5 nM.

B9: iPS:392523 (bispecific antibody, human IgG1, kappa, lambda, N297G)
light: DIQLTQSPSFLSASVGDRVTITCRASQSIGRSLHWYQEKPGKAPKLLIKYASQSLSGVPSRFSGSGSGTEFTLTISSLQPEDFATYYCHQSSRLPFTFGPGTKVDIKRTVAAPSVFIFPPSDEQLKSGTASVVCLLNNFYPREAKVQWKVDNALQSGNSQESVTEQDSKDSTYSLESTLTLSKADYEKHKVYACEVTHQGLSSPVTKSFNRGEC
heavy: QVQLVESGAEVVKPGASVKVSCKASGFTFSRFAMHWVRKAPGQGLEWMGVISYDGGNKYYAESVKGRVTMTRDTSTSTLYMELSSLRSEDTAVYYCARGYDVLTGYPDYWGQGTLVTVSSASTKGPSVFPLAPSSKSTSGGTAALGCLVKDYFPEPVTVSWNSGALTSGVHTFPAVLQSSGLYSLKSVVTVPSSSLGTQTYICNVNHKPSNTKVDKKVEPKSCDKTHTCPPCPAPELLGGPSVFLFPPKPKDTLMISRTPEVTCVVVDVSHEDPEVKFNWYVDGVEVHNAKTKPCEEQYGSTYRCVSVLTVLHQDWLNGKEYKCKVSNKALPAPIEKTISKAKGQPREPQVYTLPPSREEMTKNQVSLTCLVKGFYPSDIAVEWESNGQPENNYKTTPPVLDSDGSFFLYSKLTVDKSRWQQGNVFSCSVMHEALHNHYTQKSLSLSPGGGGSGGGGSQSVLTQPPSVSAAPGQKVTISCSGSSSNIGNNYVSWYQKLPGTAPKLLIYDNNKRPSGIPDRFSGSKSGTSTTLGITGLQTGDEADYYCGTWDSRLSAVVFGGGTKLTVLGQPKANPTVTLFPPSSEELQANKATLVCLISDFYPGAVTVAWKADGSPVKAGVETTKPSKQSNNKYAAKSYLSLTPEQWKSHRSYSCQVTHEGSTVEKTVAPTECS
chain: QVQLVESGGGVVQPGRSLRLSCAASGFTFSSFGMHWVREAPGKGLEWVAVISFDGSIKYSVDSVKGRFTISRDNSKNTLFLQMNSLRAEDTAVYYCARDRLNYYESSGYYHYKYYGMAVWGQGTTVTVSSASTKGPSVFPLAPSSKSTSGGTAALGCLVKDYFPEPVTVSWNSGALTSGVHTFPAVLQSSGLYSLESVVTVPSSSLGTQTYICNVNHKPSNTKVDKKV
For B9, the “Human PAC1 Receptor IC50” value with human PAC1 receptor turned out to be 5.03 nM. Moreover, the “Human CGRP Receptor IC50” value with human CGRP receptor came to 20.4 nM.

B10: iPS:392522 (bispecific antibody, human IgG1, kappa, lambda, N297G)
light: DIQLTQSPSFLSASVGDRVTITCRASQSIGRSLHWYQEKPGKAPKLLIKYASQSLSGVPSRFSGSGSGTEFTLTISSLQPEDFATYYCHQSSRLPFTFGPGTKVDIKRTVAAPSVFIFPPSDEQLKSGTASVVCLLNNFYPREAKVQWKVDNALQSGNSQESVTEQDSKDSTYSLESTLTLSKADYEKHKVYACEVTHQGLSSPVTKSFNRGEC
heavy: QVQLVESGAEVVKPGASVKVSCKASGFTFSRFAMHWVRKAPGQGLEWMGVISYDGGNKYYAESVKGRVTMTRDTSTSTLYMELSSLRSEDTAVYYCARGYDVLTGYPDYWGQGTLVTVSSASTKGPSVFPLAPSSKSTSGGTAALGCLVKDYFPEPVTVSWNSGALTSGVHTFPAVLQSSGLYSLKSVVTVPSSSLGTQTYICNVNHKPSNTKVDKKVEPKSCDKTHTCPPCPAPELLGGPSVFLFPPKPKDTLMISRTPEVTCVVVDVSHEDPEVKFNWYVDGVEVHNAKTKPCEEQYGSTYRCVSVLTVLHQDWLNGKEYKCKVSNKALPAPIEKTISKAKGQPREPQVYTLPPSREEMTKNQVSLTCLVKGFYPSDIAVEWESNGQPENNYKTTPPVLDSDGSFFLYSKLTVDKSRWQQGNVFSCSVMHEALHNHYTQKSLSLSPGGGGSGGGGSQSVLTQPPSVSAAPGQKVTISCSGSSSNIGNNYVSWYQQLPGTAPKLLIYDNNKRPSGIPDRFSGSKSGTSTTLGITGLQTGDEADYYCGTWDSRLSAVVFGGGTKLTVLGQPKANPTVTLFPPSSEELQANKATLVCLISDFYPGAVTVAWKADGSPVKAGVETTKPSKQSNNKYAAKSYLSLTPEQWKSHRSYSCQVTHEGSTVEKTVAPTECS
chain: QVQLVESGGGVVQPGRSLRLSCAASGFTFSSFGMHWVRQAPGKGLEWVAVISFDGSIKYSVDSVKGRFTISRDNSKNTLFLQMNSLRAEDTAVYYCARDRLNYYESSGYYHYKYYGMAVWGQGTTVTVSSASTKGPSVFPLAPSSKSTSGGTAALGCLVKDYFPEPVTVSWNSGALTSGVHTFPAVLQSSGLYSLESVVTVPSSSLGTQTYICNVNHKPSNTKVDKKV
As to B10, in the experiment with human PAC1 receptor, the “Human PAC1 Receptor IC50 (nM), lot #1” value came out at 9.32 nM and the “Human PAC1 Receptor IC50 (nM), lot #2” value came to 3.29 nM. Besides, in the experiment with human CGRP receptor, the “Human CGRP Receptor IC50 (nM), lot #1” value turned out to be 8.8 nM and the “Human CGRP Receptor IC50 (nM), lot #2” value turned out to be 7.58 nM.

B11: iPS:392521 (bispecific antibody, human IgG1, kappa, lambda, N297G)
light: DIQLTQSPSFLSASVGDRVTITCRASQSIGRSLHWYQQKPGKAPKLLIKYASQSLSGVPSRFSGSGSGTEFTLTISSLQPEDFATYYCHQSSRLPFTFGPGTKVDIKRTVAAPSVFIFPPSDEQLKSGTASVVCLLNNFYPREAKVQWKVDNALQSGNSQESVTEQDSKDSTYSLESTLTLSKADYEKHKVYACEVTHQGLSSPVTKSFNRGEC
heavy: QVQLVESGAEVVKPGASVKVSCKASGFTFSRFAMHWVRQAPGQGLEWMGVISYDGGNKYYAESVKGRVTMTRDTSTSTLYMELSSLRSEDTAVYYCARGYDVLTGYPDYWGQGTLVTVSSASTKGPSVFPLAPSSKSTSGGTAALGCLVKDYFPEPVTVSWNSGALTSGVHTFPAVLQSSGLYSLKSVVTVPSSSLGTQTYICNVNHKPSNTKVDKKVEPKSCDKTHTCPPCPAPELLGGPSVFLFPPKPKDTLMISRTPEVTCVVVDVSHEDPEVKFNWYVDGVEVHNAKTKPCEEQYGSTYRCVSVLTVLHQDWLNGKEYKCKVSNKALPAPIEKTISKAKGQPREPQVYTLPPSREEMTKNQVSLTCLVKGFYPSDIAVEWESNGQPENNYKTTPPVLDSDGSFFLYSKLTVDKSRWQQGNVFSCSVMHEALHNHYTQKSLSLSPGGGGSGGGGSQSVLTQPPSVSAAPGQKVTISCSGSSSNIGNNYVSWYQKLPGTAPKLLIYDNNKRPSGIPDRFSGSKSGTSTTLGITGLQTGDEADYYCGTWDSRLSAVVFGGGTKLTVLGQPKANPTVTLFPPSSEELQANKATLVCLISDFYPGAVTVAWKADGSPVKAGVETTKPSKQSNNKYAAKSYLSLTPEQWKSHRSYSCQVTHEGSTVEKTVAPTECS
chain: QVQLVESGGGVVQPGRSLRLSCAASGFTFSSFGMHWVREAPGKGLEWVAVISFDGSIKYSVDSVKGRFTISRDNSKNTLFLQMNSLRAEDTAVYYCARDRLNYYESSGYYHYKYYGMAVWGQGTTVTVSSASTKGPSVFPLAPSSKSTSGGTAALGCLVKDYFPEPVTVSWNSGALTSGVHTFPAVLQSSGLYSLESVVTVPSSSLGTQTYICNVNHKPSNTKVDKKV
Turning to B11, in the experiment with human PAC1 receptor, the “Human PAC1 Receptor IC50” value turned out to be 6.88 nM. The “Human CGRP Receptor IC50” value with human CGRP receptor turned out to be 18.8 nM.
